Assay results from the supplement of paper PMC9732359.
± gives the uncertainty stated by the source.

Test: protein stability index of a GFP-peptide fusion (yeast GPS) (PSI 1-4); higher = more stable; sorted into four equal gates, so the index is relative within each strain
Details: ubr1∆
Method in brief: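 Peptides tiling yeast proteins in 17-residue segments were fused downstream of GFP, with Cherry expressed from the same plasmid. As a pooled library in yeast, mid-log cultures grown in leucine-free medium were sorted into four equal gates by GFP/Cherry fluorescence ratio. Gate plasmids were PCR-amplified and Illumina-sequenced, and barcodes linked reads to strains. Each peptide received a protein stability index equal to the sum of each gate's read frequency times its gate number.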

Point of comparison: TNNKKLLEKANNQQRLL [SMC3], protein stability index 1.49 ± 0.063. Against it:
- SVPLRKGDRALLVKLSK [BRR2] — higher, 2.99 ± 0.15
- SVQLPDMAKLKKMMNTS [SWI3] — higher, 1.94 ± 0.082
- SVSMLLQYYILEYMNTA [RRI2] — higher, 2.19 ± 0.055
- SVVHPGEMVGVLAAQSI [RPO21] — lower, 1.26 ± 0.06
- SVVLTLQAFGESESTTN [RPB3] — lower, 1.18 ± 0.052
- SVWKPIAAIIGRLNTLV [IRR1] — higher, 1.63 ± 0.024
- SVYYHKGNFRTKPFENV [SNU114] — higher, 3.31 ± 0.092
- SWASEGISKKTRIAGVV [RPS8A] — higher, 2.03 ± 0.034
- SYALSMEKDKLKNLLRS [SNU114] — higher, 2.68 ± 0.13
- SYANLPGTITHGMFSSA [FAS1] — higher, 2.51 ± 0.035
- SYDRTLLIADSRRPEPK [RPS16A] — higher, 2.29 ± 0.058
- SYELRNTTTYKSRPDRP [SNF5] — higher, 3.19 ± 0.067
- SYFKNSVIVKFHSEPDR [LIN1] — higher, 2.77 ± 0.047
- SYRLLPQINILQPIKGE [RPC40] — higher, 2.03 ± 0.064
- SYTFRSEKGLLSATQFT [FAS1] — higher, 2.78 ± 0.036
- SYYSREQDALFITRLAQ [RPN1] — higher, 1.8 ± 0.042
- TAETGYIQRRLVKALED [RPO21] — higher, 2.74 ± 0.072
- TAFATEFFVQVLTHESL [DLS1] — higher, 2.02 ± 0.046
- TALALKYLIKYNVFRQH [CSI1] — higher, 1.86 ± 0.053
- TANANKPAFSFGATTND [YJL041W/NSP1] — higher, 2.88 ± 0.039
- TARRNVSGDAAALFRLH [SWI3] — higher, 1.95 ± 0.063
- TCPGLSLTDVAFFTYDA [ECM29] — higher, 3.11 ± 0.099
- TDEHLIFNSGKMIILDK [ISW2] — higher, 2.59 ± 0.058
- TDGADENVQIGEDFMEV [SRB4] — higher, 3.1 ± 0.19
- TDKVSLSQPVSASKHEY [SIR4] — higher, 1.95 ± 0.041
- TDLKKIIKANQLILSDV [RET1] — higher, 2.39 ± 0.05
- TEDRYNEYVAKVSAREK [FAS2] — higher, 3.3 ± 0.06
- TEENKANTNSVTSMEAA [YIL149C/MLP2] — higher, 3.13 ± 0.058
- TEKKFTKEQYAAESKKY [RPL5] — higher, 3.02 ± 0.11
- TETALMNLKKELQGYIE [SRB5] — higher, 2.94 ± 0.085
- TEYCVGDYVAYQLNGVA [YMR129W/POM152] — higher, 2.52 ± 0.066
- TEYGRKYNVNISALTQT [PRP8] — higher, 2.5 ± 0.047
- TFAQEKLNTFENDLLQE [SMC3] — higher, 2.81 ± 0.13
- TFAVILFLIIQCYKIYD [YMR129W/POM152] — lower, 1.31 ± 0.053
- TFEIPQAHEIVIPSYSK [SWI3] — higher, 2.36 ± 0.064
- TFENTNNTEKNDVTNKN [SIR4] — higher, 3.04 ± 0.039
- TFFPRCIIAVSCTLLER [POP1] — higher, 1.63 ± 0.03
- TFGIRRNEKIAVHVTVR [RPL11A] — higher, 2.21 ± 0.072
- TFHDYDMVKLDINPPLV [RRP42] — higher, 3.15 ± 0.037
- TFQRVCQYMVACVPLLP [RPN1] — higher, 2.53 ± 0.1
- TFSVYHESTSRTDQYTI [YMR129W/POM152] — higher, 2.62 ± 0.066
- TGANSIYSVEKKISRLP [UBP6] — higher, 3.26 ± 0.037
- TGITKKDEDEEADEDMK [PRE9] — higher, 3.07 ± 0.061
- TGTGLQDENIGLSMLAK [RPC31] — higher, 3.4 ± 0.11
- TGVMIGIDLAYNMYDAY [PRP8] — higher, 2.84 ± 0.051
- THSKLFADKKRDCIDIS [PRP8] — higher, 3.38 ± 0.074
- TIEHAADITDGNNTELT [YCG1] — higher, 3.31 ± 0.069
- TIEVLDEVITEGQADID [POP7] — higher, 3.07 ± 0.049
- TIFGGVDKNGAHLYMLE [PRE10] — higher, 3.29 ± 0.075
- TIFNLPKNKLVPTLEAK [FAS1] — higher, 3.01 ± 0.061
- TIFSPEGRLYQVEYALE [PRE9] — higher, 3.12 ± 0.051
- TIGPYRARKDRMRVSVL [SSN3] — higher, 3.12 ± 0.052
- TIITDCAFLLTKIKDAE [YJL039C/NUP192] — higher, 2.52 ± 0.07
- TIKVAGTPLLEVRGQVP [SNU114] — higher, 2.98 ± 0.069
- TIKVVKRSMDAEQLGHA [RPP1] — higher, 3.38 ± 0.077
- TILQHLSEAWRCWKANI [PRP8] — higher, 3.32 ± 0.068
- TILYLNVFHGLCAGANN [IRR1] — lower, 1.34 ± 0.076
- TIPLGGSVHKLPYAIAG [PRE3] — higher, 3.08 ± 0.045
- TIRVVTENKIFVEVERA [RPN5] — higher, 2.45 ± 0.27
- TIRYPDPNIKVNDTVKI [RPS4A] — higher, 2.71 ± 0.066
- TKDKAKKIREIYRYDEM [BRR2] — higher, 2.89 ± 0.059
- TKEVESNIITKSLVQYI [DIS3] — higher, 2.87 ± 0.19
- TKGMITNLQRNVDRLYK [NUT2] — higher, 3.24 ± 0.16
- TKIAQSQTMAETYVASY [ECM29] — higher, 2.22 ± 0.034
- TKKTITPMGGFVHYGEI [RPL3] — higher, 3.01 ± 0.046
- TKLIQYEHNGRTLEAIT [CSL4] — higher, 2.29 ± 0.034
- TKNIPITHRDLHYDKDY [SSN8] — higher, 2.83 ± 0.039
- TKPNVLNDPSLKIQFIL [SIN4] — higher, 2.538 ± 0.025
- TKRESLNARMFLKYYGA [SIR2] — higher, 2.6 ± 0.1
- TKSNRRVSHSDTNSSKP [SIR4] — higher, 3.25 ± 0.053
- TKTNVDNNSKAEASFTF [YLR335W/NUP2] — higher, 3.13 ± 0.046
- TKTPGPGGQAALRALAR [RPS14A] — higher, 2.3 ± 0.029
- TKTRKHRGHVSAGKGRI [RPL28] — higher, 2.4 ± 0.062
- TKTTGKCGSVTVRLIPA [RPS2] — higher, 1.71 ± 0.11
- TKVLQFAAKQRQELQMQ [SNF2] — higher, 2.31 ± 0.083
- TKYSAKYAQDGAGIERE [RPL3] — higher, 3.19 ± 0.15
- TLAERQQLAYDLSISAL [RPN9] — higher, 2.95 ± 0.093
- TLAITTVTNSKFRSSIL [RPN2] — higher, 2.52 ± 0.045
- TLAYDRGHRIRREFKQY [PRP8] — higher, 2.3 ± 0.052
- TLDYAERHGYIRGIVKQ [RPL2A] — higher, 1.8 ± 0.051
- TLEAKIGGLLSKVREEV [RPO31] — higher, 2.87 ± 0.084
- TLFSSIEPQVINYLALN [ECM29] — higher, 2.09 ± 0.082
- TLGKLSTSVGWKYEDVV [RPL16B] — higher, 2.81 ± 0.059
- TLHLVLRLRGGIIEPSL [RPL40A] — higher, 2.77 ± 0.044
- TLKKEWLKEYEDETLRR [YIL149C/MLP2] — higher, 3.52 ± 0.12
- TLKLQDTRITPSKVSKI [PRE6] — higher, 2.01 ± 0.031
- TLKPTFSFTEPAQKDSS [YOR098C/NUP1] — higher, 2.53 ± 0.037
- TLLKKANRDDVKGRENE [RPC82] — higher, 3.15 ± 0.17
- TLLREVVFTRLVQRCWQ [CSN12] — within error, 1.54 ± 0.055
- TLLYEQIIQRDKINKYS [SNF5] — higher, 2.27 ± 0.072
- TLNPKTGHLFLKIIHTS [PRP8] — higher, 1.84 ± 0.048
- TLNSRALSGLYYKNFHN [SNM1] — higher, 2 ± 0.042
- TLPGDDELDQEILNLST [RPT5] — higher, 3.45 ± 0.098
- TLPQPRLNKLNSNGIAM [SMD1] — higher, 2.15 ± 0.053
- TLQLYMVHREFLKLANG [RGR1] — higher, 2.28 ± 0.049
- TLQTISFLGYLRYVKQI [ISW2] — higher, 1.96 ± 0.048
- TLSYDDISAAIVHSSDG [DLS1] — higher, 2.66 ± 0.046
- TMETKTLPEKKQFDSIF [SIR4] — higher, 2.65 ± 0.043
- TMGEETAKKDMSSTTPK [SNF12] — higher, 3.27 ± 0.079
- TMHTKTYAAEIAHNISA [RPL32] — higher, 2.33 ± 0.036
- TMLENITLRGVENIERV [RPO21] — higher, 2.69 ± 0.058
- TNEEVRNMAEEFEYDDE [CYT1] — higher, 2.2 ± 0.041
- TNKISPKDFSPNFTGID [SSN2] — higher, 2.91 ± 0.057
